The chains are these.
B1: C1orf55 (parent)
chain: FTSPDYQQQCHEMAERLEDSVLKG
B2: HSP90AB1 (parent)
chain: QVANSAFVERVRKRGFEVVYMTEP
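Also: lentivirally expressed fusions sorted by FACS into six bins by GFP to DsRed ratio, PSI derived from sequencing read proportions per bin multiplied by bin number.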

Variants of B1 are the subject of one series. The series is described as follows: protein stability index of a GFP-peptide fusion (GPS, HEK-293T) (PSI 1-6); higher = more stable. Conditions: c terminus: a fixed tail appended.
Turning to FCSPDYQQQCHEMAERLEDSVLKG [T2C], the protein stability index was determined as 1.56.
Still for that read-out and setting: the figure for FTSPDYEQQCHEMAERLEDSVLKG [Q7E] is 3.92; for FTSPDYHQQCHEMAERLEDSVLKG [Q7H] it is 2.14.
Same read-out and setting: the figure for FTSPDYAQQCHEMAERLEDSVLKG [Q7A] is 1.12; for FTSPDYCQQCHEMAERLEDSVLKG [Q7C] it is 1.68; for FTSPDYFQQCHEMAERLEDSVLKG [Q7F] it is 3.33.
On the same count and under the same terms, next, FTSPDYDQQCHEMAERLEDSVLKG [Q7D]: 4.18; FTSPDYGQQCHEMAERLEDSVLKG [Q7G]: 2.05.
In the case of HTSPDYQQQCHEMAERLEDSVLKG [F1H], the protein stability index is 4.59.
On the same count and under the same terms, the figure for YTSPDYQQQCHEMAERLEDSVLKG [F1Y] is 1.94.
Still for that read-out and setting: the figure for ITSPDYQQQCHEMAERLEDSVLKG [F1I] is 4.68.
Take DTSPDYQQQCHEMAERLEDSVLKG [F1D]: the protein stability index was found to be 4.84.
Same read-out and setting: the figure for QTSPDYQQQCHEMAERLEDSVLKG [F1Q] is 4.35.
Same read-out and setting: the figure for RTSPDYQQQCHEMAERLEDSVLKG [F1R] is 3.98; for ETSPDYQQQCHEMAERLEDSVLKG [F1E] it is 4.78.
On the same count and under the same terms, the figure for MTSPDYQQQCHEMAERLEDSVLKG [F1M] is 4.55.
For VTSPDYQQQCHEMAERLEDSVLKG [F1V], the protein stability index was found to be 4.07.
On the same count and under the same terms, next, STSPDYQQQCHEMAERLEDSVLKG [F1S]: 4.31; CTSPDYQQQCHEMAERLEDSVLKG [F1C]: 4.43.
The same measure, in the same setting: the figure for TTSPDYQQQCHEMAERLEDSVLKG [F1T] is 4.88; for LTSPDYQQQCHEMAERLEDSVLKG [F1L] it is 5; for PTSPDYQQQCHEMAERLEDSVLKG [F1P] it is 5.18.
On to NTSPDYQQQCHEMAERLEDSVLKG [F1N], for which the protein stability index came out at 4.84.
The same measure, in the same setting: next, GTSPDYQQQCHEMAERLEDSVLKG [F1G]: 4.87; WTSPDYQQQCHEMAERLEDSVLKG [F1W]: 3.75; ATSPDYQQQCHEMAERLEDSVLKG [F1A]: 4.88.
KTSPDYQQQCHEMAERLEDSVLKG [F1K]: the protein stability index is 4.64.

Variants of B2 are the subject of the next series. The description is as above. Conditions: c terminus: a fixed tail appended.
Consider QVANSAFVERVRKRGFEVVYMTDP [E23D], for which the protein stability index came to 2.81.
With QVANSAFVERVRKRGFEVVYMTRP [E23R], the protein stability index is 2.47.
Still for that read-out and setting: next, QVANSAFVERVRKRGFEVVYMTIP [E23I]: 1.69; QVANSAFVERVRKRGFEVVYMTTP [E23T]: 1.89.
Same read-out and setting: the figure for QVANSAFVERVRKRGFEVVYMTAP [E23A] is 2.88; for QVANSAFVERVRKRGFEVVYMTLP [E23L] it is 1.16.
Still for that read-out and setting: the figure for QVANSAFVERVRKRGFEVVYMTPP [E23P] is 2.19; for QVANSAFVERVRKRGFEVVYMTNP [E23N] it is 1.83; for QVANSAFVERVRKRGFEVVYMTMP [E23M] it is 2.56.
In the case of QVANSAFVERVRKRGFEVVYMTYP [E23Y], the protein stability index is 1.66.
Take QVANSAFVERVRKRGFEVVYMTQP [E23Q]: the protein stability index stood at 1.9.
Same read-out and setting: the figure for QVANSAFVERVRKRGFEVVYMTGP [E23G] is 1.78.
Still for that read-out and setting: next, QVANSAFVERVRKRGFEVVYMTHP [E23H]: 1.95; QVANSAFVERVRKRGFEVVYMTKP [E23K]: 2.13.
The same measure, in the same setting: the figure for QVANSAFVERVRKRGFEVVYMTCP [E23C] is 2.67; for QVANSAFVERVRKRGFEVVYMTWP [E23W] it is 2.14; for QVANSAFVERVRKRGFEVVYMTSP [E23S] it is 2.54.
As to QVANSAFVERVRKRGFEVVYMTVP [E23V], the protein stability index stood at 2.38.
Still for that read-out and setting: the figure for QVANSAFVERVRKRGFEVVYMTFP [E23F] is 1.62; for QVANSAFVERVRKRGFEVVYMTEI [P24I] it is 2.03.
On the same count and under the same terms, next, QVANSAFVERVRKRGFEVVYMTEC [P24C]: 2.2; QVANSAFVERVRKRGFEVVYMTEW [P24W]: 2.09; QVANSAFVERVRKRGFEVVYMTEN [P24N]: 2.32.
For the variant QVANSAFVERVRKRGFEVVYMTEH [P24H], the protein stability index was 2.1.
As for QVANSAFVERVRKRGFEVVYMTEK [P24K], the protein stability index was 2.44.
Take QVANSAFVERVRKRGFEVVYMTEY [P24Y]: the protein stability index was 1.89.
The same measure, in the same setting: next, QVANSAFVERVRKRGFEVVYMTEQ [P24Q]: 2.52.
Still for that read-out and setting: the figure for QVANSAFVERVRKRGFEVVYMTEE [P24E] is 3.13; for QVANSAFVERVRKRGFEVVYMTET [P24T] it is 2.48.
Same read-out and setting: next, QVANSAFVERVRKRGFEVVYMTER [P24R]: 2; QVANSAFVERVRKRGFEVVYMTEL [P24L]: 1.21.
As to QVANSAFVERVRKRGFEVVYMTEG [P24G], the protein stability index stood at 2.42.
QVANSAFVERVRKRGFEVVYMTEF [P24F]: the protein stability index stood at 1.63.
The same measure, in the same setting: the figure for QVANSAFVERVRKRGFEVVYMTED [P24D] is 3.18; for QVANSAFVERVRKRGFEVVYMTEM [P24M] it is 2.14; for QVANSAFVERVRKRGFEVVYMCEP [T22C] it is 2.12.
Take QVANSAFVERVRKRGFEVVYMPEP [T22P]: the protein stability index was found to be 2.38.
The same measure, in the same setting: next, QVANSAFVERVRKRGFEVVYMWEP [T22W]: 1.55; QVANSAFVERVRKRGFEVVYMSEP [T22S]: 2.7.
On the same count and under the same terms, the figure for QVANSAFVERVRKRGFEVVYMQEP [T22Q] is 2.54.
Still for that read-out and setting: next, QVANSAFVERVRKRGFEVVYMAEP [T22A]: 2.89; QVANSAFVERVRKRGFEVVYMGEP [T22G]: 2.
For QVANSAFVERVRKRGFEVVYMNEP [T22N], the protein stability index was 2.51.
The same measure, in the same setting: the figure for QVANSAFVERVRKRGFEVVYMVEP [T22V] is 1.63; for QVANSAFVERVRKRGFEVVYMLEP [T22L] it is 1.7; for QVANSAFVERVRKRGFEVVYMEEP [T22E] it is 2.56.
On the same count and under the same terms, the figure for QVANSAFVERVRKRGFEVVYMHEP [T22H] is 1.91.
Still for that read-out and setting: next, QVANSAFVERVRKRGFEVVYMIEP [T22I]: 1.81.
QVANSAFVERVRKRGFEVVYMFEP [T22F]: the protein stability index is 1.68.
Still for that read-out and setting: next, QVANSAFVERVRKRGFEVVYMYEP [T22Y]: 1.95; QVANSAFVERVRKRGFEVVYMMEP [T22M]: 1.91.
The same measure, in the same setting: next, QVANSAFVERVRKRGFEVVYDTEP [M21D]: 2.96.
On the same count and under the same terms, next, QVANSAFVERVRKRGFEVVYHTEP [M21H]: 3.37; QVANSAFVERVRKRGFEVVYRTEP [M21R]: 3.33.
With QVANSAFVERVRKRGFEVVYFTEP [M21F], the protein stability index turned out to be 2.06.
Same read-out and setting: next, QVANSAFVERVRKRGFEVVYETEP [M21E]: 3.06.
On the same count and under the same terms, the figure for QVANSAFVERVRKRGFEVVYGTEP [M21G] is 2.65; for QVANSAFVERVRKRGFEVVYATEP [M21A] it is 2.11; for QVANSAFVERVRKRGFEVVYPTEP [M21P] it is 2.8.
Still for that read-out and setting: next, QVANSAFVERVRKRGFEVVYITEP [M21I]: 1.98; QVANSAFVERVRKRGFEVVYNTEP [M21N]: 2.77; QVANSAFVERVRKRGFEVVYQTEP [M21Q]: 3.1.
On to QVANSAFVERVRKRGFEVVYLTEP [M21L], for which the protein stability index was 2.6.
Take QVANSAFVERVRKRGFEVVYWTEP [M21W]: the protein stability index is 3.09.
For the variant QVANSAFVERVRKRGFEVVYTTEP [M21T], the protein stability index is 3.05.
Same read-out and setting: the figure for QVANSAFVERVRKRGFEVVYCTEP [M21C] is 2.41; for QVANSAFVERVRKRGFEVVYYTEP [M21Y] it is 2.04.

Values taken from the supplement of paper PMC10567573.
